From publication PMC9851154

B1: NOV1 (Novosphingobium aromaticivorans DSM 12444) (protein)
chain: MAQFPNTPSFTGFNTPSRIEADIADLAHEGTIPQGLNGAFYRVQPDPQFPPRLDDDIAFNGDGMITRFHIHDGQVDFRQRWAKTDKWKLENAAGKALFGAYRNPLTDDEAVKGEIRSTANTNAFVFGGKLWAMKEDSPALVMDPATMETFGFEKFGGKMTGQTFTAHPKVDPKTGNMVAIGYAASGLCTDDVTYMEVSPEGELVREVWFKVPYYCMMHDFGITEDYLVLHIVPSIGSWERLEQGKPHFGFDTTMPVHLGIIPRRDGVRQEDIRWFTRDNCFASHVLNAWQEGTKIHFVTCEAKNNMFPFFPDVHGAPFNGMEAMSHPTDWVVDMASNGEDFAGIVKLSDTAAEFPRIDDRFTGQKTRHGWFLEMDMKRPVELRGGSAGGLLMNCLFHKDFETGREQHWWCGPVSSLQEPCFVPRAKDAPEGDGWIVQVCNRLEEQRSDLLIFDALDIEKGPVATVNIPIRLRFGLHGNWANADEIGLAEKVLAA
B2: NOV1 (Novosphingobium aromaticivorans DSM 12444; S283F) (protein)
chain: MAQFPNTPSFTGFNTPSRIEADIADLAHEGTIPQGLNGAFYRVQPDPQFPPRLDDDIAFNGDGMITRFHIHDGQVDFRQRWAKTDKWKLENAAGKALFGAYRNPLTDDEAVKGEIRSTANTNAFVFGGKLWAMKEDSPALVMDPATMETFGFEKFGGKMTGQTFTAHPKVDPKTGNMVAIGYAASGLCTDDVTYMEVSPEGELVREVWFKVPYYCMMHDFGITEDYLVLHIVPSIGSWERLEQGKPHFGFDTTMPVHLGIIPRRDGVRQEDIRWFTRDNCFAFHVLNAWQEGTKIHFVTCEAKNNMFPFFPDVHGAPFNGMEAMSHPTDWVVDMASNGEDFAGIVKLSDTAAEFPRIDDRFTGQKTRHGWFLEMDMKRPVELRGGSAGGLLMNCLFHKDFETGREQHWWCGPVSSLQEPCFVPRAKDAPEGDGWIVQVCNRLEEQRSDLLIFDALDIEKGPVATVNIPIRLRFGLHGNWANADEIGLAEKVLAA

How the values were obtained:
purified protein [1] = substrate: Oc1ccc(/C=C/c2cc(O)cc(O)c2)cc1; experiment: purified protein; type: biochemical, Novosphingobium aromaticivorans; conditions: apparent, 0.1 M Tris-HCl pH 9, room temperature
purified protein [2] = substrate: CC=Cc1ccc(O)c(OC)c1; experiment: purified protein; type: biochemical, Novosphingobium aromaticivorans; conditions: apparent, 0.1 M Tris-HCl pH 9, room temperature

| Protein | Km (purified protein [1]) | kcat (purified protein [1]) | kcat/Km (purified protein [1]) | Km (purified protein [2]) | kcat (purified protein [2]) | kcat/Km (purified protein [2]) |
| --- | --- | --- | --- | --- | --- | --- |
| B1 | 60 ± 10 µM | 0.38 ± 0.02 s⁻¹ | 6300 ± 200 M⁻¹ s⁻¹ | 600 ± 100 µM | 7.3 ± 0.2 s⁻¹ | 12200 ± 2000 M⁻¹ s⁻¹ |
| B2 | 227 ± 2 µM | 0.078 ± 0.004 s⁻¹ | 340 ± 20 M⁻¹ s⁻¹ | 800 ± 100 µM | 14.5 ± 0.8 s⁻¹ | 18100 ± 4000 M⁻¹ s⁻¹ |
